The text below walks through data of patent US20180118840A1 (Eli Lilly, published 2018).

In assay [1] the target is T1, human Dkk-1 (Dickkopf-related protein 1) (human, UniProt O94907 32-266).
T1 construct: Soluble analyte in SPR; recombinant hDkk-1 in the reporter assay; also called hDkk-1; recombinant hDkk-1
T1 sequence (looked up): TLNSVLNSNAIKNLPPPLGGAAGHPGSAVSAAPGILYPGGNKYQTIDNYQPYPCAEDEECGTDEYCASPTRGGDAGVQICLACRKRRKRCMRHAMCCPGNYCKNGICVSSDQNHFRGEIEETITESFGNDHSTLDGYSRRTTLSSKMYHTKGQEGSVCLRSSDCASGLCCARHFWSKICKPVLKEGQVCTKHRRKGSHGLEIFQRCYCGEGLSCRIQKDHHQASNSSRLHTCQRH
Nature of the assay: SPR (Biacore 2000), antibody captured on protein A, antigen as analyte, 1:1 model, average of n=3. The method, then: (§1) A CM5 chip (Biacore, pin. BR-100530) containing immobilized protein A (generated using standard NHS-EDC amine coupling) on all four flow cells (Fc) is used to employ a capture methodology. Antibody samples are prepared at 0.2-10 μg/mL by dilution into running buffer. Human Dkk-1 samples are prepared at final concentrations of 100 nM, 50 nM, 25 nM, 12.5 nM, 6.25 nM, 3.125 nM, 1.5625 nM, 0.78125 nM, 0.390625 nM, 0.1953125 nM, and 0 (blank) nM by dilution into running buffer. Human RANKL are prepared at final concentrations of 100 nM, 50 nM, 25 nM, 12.5 nM, 6.25 nM, 3.125 nM, 1.5625 nM, 0.78125 nM, 0.390625 nM, 0.1953125 nM, and 0 (blank) nM by dilution into running buffer.
(§2) Each analysis cycle consists of (1) capturing antibody samples on separate flow cells (Fc2 and Fc3); (2) injection of each human Dkk-1 concentration over all Fc at 50 μL/min for 300 seconds followed by return to buffer flow for 1200 seconds to monitor dissociation phase; (3) injection of each human RANKL concentration over all Fc at 100 μL/min for 150 seconds followed by return to buffer flow for 1800 seconds to monitor dissociation phase; (4) regeneration of chip surfaces with injection of 10 mM glycine, pH 1.5, for 120 seconds at 5 μL/min over all cells; and (5) equilibration of chip surfaces with a 10 μL (60-sec) injection of HBS-EP+. Data are processed using standard double-referencing and fit to a 1:1 binding model using Biacore 2000 Evaluation software, version 2.0.3, to determine the association rate (kₒₙ, M⁻¹s⁻¹ units), dissociation rate (koff, s⁻¹ units), and Rₘₐₓ (RU units). The equilibrium dissociation constant (KD) is calculated from the relationship KD=koff/kₒₙ, and is in molar units.
For orientation: Surface plasmon resonance follows binding to a sensor surface in real time, without labels.

The target of assay [2] is T2, human RANKL (receptor activator of nuclear factor kappa-B ligand) (human, UniProt O14788 140-317, limits assumed).
T2 construct: Soluble analyte in SPR; soluble hRANKL at 100 ng/mL in the reporter assay; also called hRANKL
T2 sequence (looked up): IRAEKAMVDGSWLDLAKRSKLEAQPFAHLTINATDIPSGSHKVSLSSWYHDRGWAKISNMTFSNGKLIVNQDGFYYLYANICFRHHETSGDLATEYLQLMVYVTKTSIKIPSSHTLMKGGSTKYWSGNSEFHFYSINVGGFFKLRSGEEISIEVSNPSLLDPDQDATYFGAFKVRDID
The experiment in a line: SPR (Biacore 2000), antibody captured on protein A, antigen as analyte, 1:1 model, average of n=5. The method, then:
as §1, §2

In assay [3] the target is T2, human RANKL (receptor activator of …). Nature of the assay: cell-based or functional assay.
Assay [4] deals with T1, human Dkk-1 (Dickkopf-related protein 1). The experiment in a line: cell-based or functional assay.

B1: exemplified bispecific antibody compound of Table 1 (anti-Dkk-1 IgG4 mAb with anti-RANKL scFv linked at the C-terminus of each heavy chain) (bispecific antibody)
heavy: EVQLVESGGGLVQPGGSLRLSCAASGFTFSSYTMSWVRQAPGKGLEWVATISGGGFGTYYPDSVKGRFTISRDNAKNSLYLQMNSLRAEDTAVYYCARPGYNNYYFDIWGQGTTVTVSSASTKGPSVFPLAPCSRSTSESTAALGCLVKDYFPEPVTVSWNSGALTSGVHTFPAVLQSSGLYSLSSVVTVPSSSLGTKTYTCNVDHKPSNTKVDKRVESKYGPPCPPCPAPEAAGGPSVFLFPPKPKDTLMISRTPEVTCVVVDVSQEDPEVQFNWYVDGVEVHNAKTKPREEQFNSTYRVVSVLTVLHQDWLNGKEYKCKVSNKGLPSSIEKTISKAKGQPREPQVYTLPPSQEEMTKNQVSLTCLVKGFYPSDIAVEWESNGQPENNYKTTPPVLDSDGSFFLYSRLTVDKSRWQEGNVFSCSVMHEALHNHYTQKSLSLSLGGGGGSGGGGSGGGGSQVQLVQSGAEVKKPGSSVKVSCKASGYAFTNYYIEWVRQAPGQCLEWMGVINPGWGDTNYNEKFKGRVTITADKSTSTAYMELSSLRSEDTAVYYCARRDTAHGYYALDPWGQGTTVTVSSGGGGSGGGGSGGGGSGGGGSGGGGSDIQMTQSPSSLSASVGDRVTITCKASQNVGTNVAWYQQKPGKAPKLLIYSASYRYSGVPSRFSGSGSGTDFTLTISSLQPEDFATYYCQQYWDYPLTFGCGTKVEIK
light: EIVLTQSPATLSLSPGERATLSCHASDSISNSLHWYQQKPGQAPRLLIYYARQSIQGIPARFSGSGSGTDFTLTISSLEPEDFAVYYCQQSESWPLHFGGGTKVEIKRTVAAPSVFIFPPSDEQLKSGTASVVCLLNNFYPREAKVQWKVDNALQSGNSQESVTEQDSKDSTYSLSSTLTLSKADYEKHKVYACEVTHQGLSSPVTKSFNRGEC
modifications: glycosylated at asparagine residue 296 of SEQ ID NO: 1
notes: also called Exemplified Bispecific Ab
On to B1, for which, in assay [1], binding was put at a Kd of 0.0357 nM; the koff (usually the rate constant with which the complex falls apart) was determined as 6.55e-05 s⁻¹; the kon (as a rule, a measure of how fast the partners come together) came to 1.83e+06 M⁻¹ s⁻¹. Further, in assay [2], the Kd (as a rule, the constant that tells how readily two partners part at equilibrium) was found to be 0.0874 nM; the koff turned out to be 4.2e-05 s⁻¹; the kon is 530000 M⁻¹ s⁻¹. Besides, the “IC50, reduction of RANKL-induced NF-kB driven luciferase luminescence in HEK293 cells expressing human RANK” value in assay [3] worked out at 1.2 nM. Moreover, the “EC50, restoration of Wnt3a-induced TCF/LEF luciferase luminescence in MC3T3E1/Topflash cells” value in assay [4] is 5.3 nM.

B2: Dkk-1 neutralizing antibody (a Dkk-1 antibody having an IgG4 backbone and the same heavy and light chain variable region sequences as the mAb portion of the … (antibody, V domains shown)
VH: EVQLVESGGGLVQPGGSLRLSCAASGFTFSSYTMSWVRQAPGKGLEWVATISGGGFGTYYPDSVKGRFTISRDNAKNSLYLQMNSLRAEDTAVYYCARPGYNNYYFDIWGQGTTVTVSS
VL: EIVLTQSPATLSLSPGERATLSCHASDSISNSLHWYQQKPGQAPRLLIYYARQSIQGIPARFSGSGSGTDFTLTISSLEPEDFAVYYCQQSESWPLHFGGGTKVEIK
Turning to B2, in assay [4], the “EC50, restoration of Wnt3a-induced TCF/LEF luciferase luminescence in MC3T3E1/Topflash cells” value was 6.61 nM.
